Measurements: publication PMC2576564 (Frontiers in Molecular Neuroscience, 2008)

Biological target: the molecule itself
Assay: SEC; Superdex 200 16/60 column, after Ni-NTA purification of the secreted protein

B1: extracellular domain of human DPP6-L (residues 117–865) (domain or fragment)
chain: not shown
modifications: glycosylated
Q: Which “stoichiometry N” value does the source give for B1 here?
A: 2
